# Source: publication PMC9050003, “N- and C-terminal regions of the small heat shock protein IbpA from Acholeplasma laidlawii competitively govern its oligomerization pattern and chaperone-like activity†” (RSC Advances, 2020)
# Numbering of substitutions follows the chain as printed. Names and notes keep the numbering of the source.
# B1: full-length recombinant AlIbpA (small heat shock protein IbpA from Acholeplasma laidlawii), His6-tagged (natural protein, UniProt A9NFB2 1-137, looked up)
# chain: MLSLLNKNRSFFDDFFEDFNVLNPVTTSNLMRTDIKETQNGYSLSVELPGFKKEDVKVSLEDGYLTIEAHTSKNSETKDQATKYIRKERYEGTMKRSYYVGNLHLDEINGTFENGMLHIELPKETKKEPEKRYLELK
# notes: small heat shock protein IbpA (AlIbpA) of Acholeplasma laidlawii PG8, full length; Legends call it AlIbpA-His6, the methods say the His6 tag is N-terminal; In solution a mixture of about 24-mer globules, fibrils and agglomerates; also called AlIbpA-His6; His6-IbpA; source: E. coli BL21(DE3), purified (Ni-NTA); also in E. coli BL21 pET-IbpA cells, cross-linked in the cells, crude cell extract; not …
# B2: AlIbpAN11N12 (natural protein, Acholeplasma laidlawii, UniProt A9NFB2 1-137, looked up)
# chain: B1 chain with F11N, F12N
# notes: AlIbpA of Acholeplasma laidlawii PG8 with F11F12 substituted by N11N12, complete N-terminus length kept; source: E. coli BL21(DE3), purified (Ni-NTA); not shown: His6, N-terminal, kept
# B3: AlIbpASEP (natural protein, Acholeplasma laidlawii, UniProt A9NFB2 1-137, looked up)
# chain: B1 chain with L134S, L136P
# notes: AlIbpA of Acholeplasma laidlawii PG8 with the C-terminal LEL motif substituted by SEP (L134 to S134, L136 to P136), length of the C-terminus kept; source: E. coli BL21(DE3), purified (Ni-NTA); not shown: His6, N-terminal, kept
# B4: AlIbpAΔN12 (domain or fragment, Acholeplasma laidlawii, UniProt A9NFB2 13-137, looked up)
# chain: DDFFEDFNVLNPVTTSNLMRTDIKETQNGYSLSVELPGFKKEDVKVSLEDGYLTIEAHTSKNSETKDQATKYIRKERYEGTMKRSYYVGNLHLDEINGTFENGMLHIELPKETKKEPEKRYLELK
# notes: AlIbpA of Acholeplasma laidlawii PG8 lacking the first 12 amino acid residues; source: E. coli BL21(DE3), purified (Ni-NTA); not shown: His6, N-terminal, kept
# B5: AlIbpASEPΔN12 (domain or fragment, Acholeplasma laidlawii, UniProt A9NFB2 13-137, looked up)
# chain: B4 chain with L122S, L124P
# notes: AlIbpA of Acholeplasma laidlawii PG8 lacking 12 N-terminal amino acids and with LEL substituted by SEP (L134S, L136P); source: E. coli BL21(DE3), purified (Ni-NTA); not shown: His6, N-terminal, kept
# B6: AlIbpAΔN25 (domain or fragment, Acholeplasma laidlawii, UniProt A9NFB2 26-137, looked up)
# chain: TTSNLMRTDIKETQNGYSLSVELPGFKKEDVKVSLEDGYLTIEAHTSKNSETKDQATKYIRKERYEGTMKRSYYVGNLHLDEINGTFENGMLHIELPKETKKEPEKRYLELK
# notes: AlIbpA of Acholeplasma laidlawii PG8 with 25 N-terminal amino acids removed (lacks both (W/F)(D/F)PF-like motifs); source: E. coli BL21(DE3), purified (Ni-NTA); not shown: His6, N-terminal, kept
# B7: AlIbpASEPΔN25 (domain or fragment, Acholeplasma laidlawii, UniProt A9NFB2 26-137, looked up)
# chain: B6 chain with L109S, L111P
# notes: AlIbpA of Acholeplasma laidlawii PG8 lacking 25 N-terminal amino acids and with LEL substituted by SEP (L134S, L136P); source: E. coli BL21(DE3), purified (Ni-NTA); not shown: His6, N-terminal, kept
# Columns and labels:
# [1] = target: AlIbpAΔN12C14 (Acholeplasma laidlawii); test: SEC; Superdex 200 10/300, 0.5 ml min^−1, 1 mg ml^−1 protein, 100 μl injected; 50 mM NaCl, 50 mM KCl, 50 mM K2HPO4 pH 7.4; 30 °C; fractions as areas under the peaks; peaks also viewed by TEM
# [2] = target: AlIbpAΔC14 (Acholeplasma laidlawii); test: as above
# [3] = target: AlIbpAN11N12 (Acholeplasma laidlawii) (UniProt A9NFB2); test: SPR; BIAcore T200; His6-AlIbpA proteins immobilised on Ni2+-loaded NTA chip (FC2, about 2000 RU); His6-TnrA20 on FC1 as control, response difference FC2 − FC1; ADH 1.0 mg ml^−1 injected at 10 μl min^−1; 10 mM Na2HPO4, 150 mM NaCl, pH 7.4; KD calculated from the binding curve slopes
# [4] = target: AlIbpASEPΔN12 (Acholeplasma laidlawii) (UniProt A9NFB2); test: as above
# [5] = target: AlIbpASEPΔN25 (Acholeplasma laidlawii) (UniProt A9NFB2); test: as above
# [6] = target: AlIbpAΔC14 (Acholeplasma laidlawii); test: as above
# [7] = target: AlIbpAΔN12 (Acholeplasma laidlawii) (UniProt A9NFB2); test: as above
# [8] = target: AlIbpAΔN25 (Acholeplasma laidlawii) (UniProt A9NFB2); test: as above
# [9] = target: full-length recombinant AlIbpA (small heat shock protein IbpA from Acholeplasma laidlawii), His6-tagged (Acholeplasma laidlawii) (UniProt A9NFB2); test: as above
# [10] = target: AlIbpAΔN25C14 (Acholeplasma laidlawii); test: SEC; Superdex 200 10/300, 0.5 ml min^−1, 1 mg ml^−1 protein, 100 μl injected; 50 mM NaCl, 50 mM KCl, 50 mM K2HPO4 pH 7.4; 30 °C; fractions as areas under the peaks; peaks also viewed by TEM
# [11] = target: the molecule itself; test: as above
# [12] = target: the molecule itself; test: as above; remark: listed apart in the source
molecule,measurement,setting,value
AlIbpAΔN12C14 (domain or fragment),fraction of the protein in I peak of the elution profile,[1],1%
same,fraction of the protein in II peak of the elution profile,[1],86%
AlIbpAΔC14 (domain or fragment),fraction of the protein in I peak of the elution profile,[2],7%
same,fraction of the protein in II peak of the elution profile,[2],86%
alcohol dehydrogenase (enzyme),Kd,[3],500 nM
same,Kd,[4],7200 nM
same,Kd,[5],3200 nM
same,Kd,[6],700 nM
same,Kd,[7],3500 nM
same,Kd,[8],2200 nM
same,Kd,[9],1600 nM
AlIbpAΔN25C14 (domain or fragment),fraction of the protein in I peak of the elution profile,[10],1%
same,fraction of the protein in II peak of the elution profile,[10],50%
B1,stoichiometry N,[11],~24
same,fraction of the protein in I peak of the elution profile,[12],23 ± 10.3%
same,fraction of the protein in II peak of the elution profile,[12],74 ± 17.8%
B2,stoichiometry N,[11],~24
same,fraction of the protein in I peak of the elution profile,[12],8 ± 1.7%
same,fraction of the protein in II peak of the elution profile,[12],88 ± 12.2%
B3,fraction of the protein in I peak of the elution profile,[12],18 ± 4.4%
same,fraction of the protein in II peak of the elution profile,[12],56 ± 7.8%
B4,fraction of the protein in I peak of the elution profile,[12],88 ± 17.1%
same,fraction of the protein in II peak of the elution profile,[12],10 ± 1.1%
B5,fraction of the protein in I peak of the elution profile,[12],2 ± 0.8%
same,fraction of the protein in II peak of the elution profile,[12],59 ± 10.1%
B6,fraction of the protein in I peak of the elution profile,[12],77 ± 21.3%
same,fraction of the protein in II peak of the elution profile,[12],12 ± 2.4%
B7,fraction of the protein in I peak of the elution profile,[12],69 ± 15.5%
same,fraction of the protein in II peak of the elution profile,[12],23 ± 3.2%
